Assay results taken from patent US20230242602.

Key:
[1] = system: ZFP-TF 65918.T2A.57890 (two co-expressed ZFPs) (synthetic construct); test: cell_activity; settings: htau mouse hippocampus, 3E9 VG per hemisphere
[2] = system: ZFP-TF 73133 (R→Q variant anti-tau ZFP-KRAB) (synthetic construct); test: cell_activity; settings: up to, htau mouse hippocampus, AAV9 highest dose, 3 and 6 months

Substance	activity (% reduction of mouse tau mRNA) [1]	activity (% reduction of human tau mRNA) [1]	activity (% reduction of human tau mRNA) [2]
mouse Mapt gene	> 50		
human MAPT gene target region (around TSS)		> 50	93
